The target of this assay is GST-LC3B (UniProt Q9GZQ8 1-120). Put plainly: pull-down.

B1: MYC-tagged LIMP2 wild type (natural protein)
chain: MGRCCFYTAGTLSLLLLVTSVTLLVARVFQKAVDQSIEKKIVLRNGTEAFDSWEKPPLPVYTQFYFFNVTNPEEILRGETPRVEEVGPYTYRELRNKANIQFGDNGTTISAVSNKAYVFERDQSVGDPKIDLIRTLNIPVLTVIEWSQVHFLREIIEAMLKAYQQKLFVTHTVDELLWGYKDEILSLIHVFRPDISPYFGLFYEKNGTNDGDYVFLTGEDSYLNFTKIVEWNGKTSLDWWITDKCNMINGTDGDSFHPLITKDEVLYVFPSDFCRSVYITFSDYESVQGLPAFRYKVPAEILANTSDNAGFCIPEGNCLGSGVLNVSICKNGAPIIMSFPHFYQADERFVSAIEGMHPNQEDHETFVDINPLTGIILKAAKRFQINIYVKKLDDFVETGDIRTMVFPVMYLNESVHIDKETASRLKSMINTTLIITNIPYIIMALGVFFGLVFTWLACKGQGSMDEGTADERAPLIRT
As for B1, the binding result was “binds”.

Values taken from doi:10.1101/2022.12.14.520480 (bioRxiv, 2022).
